From paper PMC5948177 (Science (New York, N.Y.), 2018)

Assays:
cryo-EM structure = target: the molecule itself; test: cryo-EM structure
[1] = target: T1, a-subunit of the yeast ATP synthase Fo (yeast (strain W303-1A background), UniProt P00854 11-259); test: cryo-EM structure
T1 sequence (looked up): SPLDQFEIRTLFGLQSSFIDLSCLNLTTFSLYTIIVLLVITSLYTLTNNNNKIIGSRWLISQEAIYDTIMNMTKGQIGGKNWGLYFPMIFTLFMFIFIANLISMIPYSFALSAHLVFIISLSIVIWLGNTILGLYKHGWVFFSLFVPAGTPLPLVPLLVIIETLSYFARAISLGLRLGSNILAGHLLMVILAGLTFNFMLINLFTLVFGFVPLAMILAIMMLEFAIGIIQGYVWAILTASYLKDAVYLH

B1: c-subunit of the yeast ATP synthase Fo (c10-ring) (natural protein, yeast (strain W303-1A background), UniProt P61829 1-76, looked up)
chain: MQLVLAAKYIGAGISTIGLLGAGIGIAIVFAALINGVSRNPSIKDTVFPMAILGFALSEATGLFCLMVSFLLLFGV
Q: How did the “stoichiometry N” value (cryo-EM structure) turn out when B1 was run?
A: 10

Q: Does B1 bind [1]?
A: binds
